Consider three molecules from patent US6033847, “InK4c-p18 and InK4d-p19, inhibitors of cyclin-dependent kinases CDK4 and CDK6, and uses thereof” (St. Jude Children's Research Hospital, dated 2000).

The target of one assay is cyclin D2 (Mus musculus (Mouse), UniProt P30280). Kind of assay: GST pull-down of radiolabelled cyclins D2 and D3. Here is the method:
(§1) Panel A is an autoradiograph of aliquots of the ^35S-methionine-labeled products, derived from the in vitro transcription and translation of plasmids containing CDNA coding sequences of the cdc or cdk gene indicated in the legend below lanes 1–6, separated by electrophoresis on denaturing polyacrylamide gels. Equal aliquots of the "input" samples shown in lanes 1–6 were incubated with control beads (lanes 7–12) (i.e., GST-Sepharose; GST=glutathione S-transferase) or with beads containing a GST-p19 fusion protein (lanes 13–18), after which the beads were washed, and adsorbed radiolabeled products were separated on gels and autoradiographed. In Panel B, the experiments were performed as in panel A, except that radiolabeled cyclins D2 and D3 were substituted for cdk gene products; the cdk4 gene product was used as a positive control. All autoradiographic exposure times were 15 hrs.
(§2) Plasmids derived from pBluescript and containing the entire coding sequences of the mouse cdk2, cdk4, cdk5, or cdk6 genes (Matsuoka et al., Mol. Cell. Biol. 14:7265–7275 (1994); Matsushime et al., Cell 71:323–334 (1992)) or human cdc2/cdk1 or cdk3 genes (provided by Drs. Matthew Meyer-son and Edward Harlow (MGH Cancer Center, Cambridge, Mass.)) were transcribed and translated in vitro (Matsuoka et al., Mol. Cell. Biol. 14:7265–7275 (1994)). Mouse cdk6 cDNA was cloned from a mouse macrophage library (Stratagene, La Jolla, Calif.) by screening with a full-length human cdk6 clone (also provided by M. Meyerson and E. Harlow). Following transcription and translation, rabbit reticulocyte lysates containing ^35S-methionine labeled CDKs (20–40 ul) were diluted to 0.5 ml in IP kinase buffer (50 mM Hepes, pH 7.5, containing 150 mM NaCl, 1 mM EDTA, 1 mM DTT, 0.1% Tween-20) containing 10 mg/ml BSA and mixed with 1 ug of purified GST or GST-p19 immobilized on glutathione-Sepharose beads. After 2 hours of incubation at 4° C., beads were collected by centrifugation, washed 4 times in IP kinase buffer, and the bound proteins were denatured and analyzed by electrophoresis on 12.5% polyacrylamide gels containing SDS (Anderson, S. J., et al., J. Virol. 51:730–741 (1984)).

Another assay concerns the target T1, cyclin D3 (Mus musculus (Mouse), UniProt P30282).
T1 sequence: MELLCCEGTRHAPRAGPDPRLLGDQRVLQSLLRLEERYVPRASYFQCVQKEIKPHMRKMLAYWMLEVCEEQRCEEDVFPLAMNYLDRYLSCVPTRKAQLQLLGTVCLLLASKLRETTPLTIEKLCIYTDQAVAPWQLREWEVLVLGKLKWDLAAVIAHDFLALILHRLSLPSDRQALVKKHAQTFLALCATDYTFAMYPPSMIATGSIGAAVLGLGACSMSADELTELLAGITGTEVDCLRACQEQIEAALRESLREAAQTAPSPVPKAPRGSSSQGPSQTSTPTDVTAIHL
Description: GST pull-down of radiolabelled cyclins D2 and D3. The method, then:
as §1, §2

The target in the next assay is mouse CDK2 (mouse, UniProt P97377-2). Description: GST pull-down of 35S-labelled in vitro translated CDKs. The method, then: (§3) Equal aliquots of the "input" samples shown in lanes 1–6 were incubated with control beads (lanes 7–12) (i.e., GST-Sepharose; GST=glutathione S-transferase) or with beads containing a GST-p19 fusion protein (lanes 13–18), after which the beads were washed, and adsorbed radiolabeled products were separated on gels and autoradiographed. In Panel B, the experiments were performed as in panel A, except that radiolabeled cyclins D2 and D3 were substituted for cdk gene products; the cdk4 gene product was used as a positive control. All autoradiographic exposure times were 15 hrs.
(§4) Human InK4 polypeptides specifically bind to the cyclin D-dependent catalytic subunits, CDK4 and CDK6 (5,18,45). To study the interactions of mouse p19 and p18 with CDKs, cDNAs encoding CDC2 (CDK1) and CDKs 2–6 were transcribed and translated in vitro, and the radiolabeled products were mixed with GST-tagged p19 and p18 fusion proteins adsorbed to glutathione-Sepharose beads or to GST-Sepharose beads as a control.
as §2

In the next assay the target is mouse CDK5 (mouse, UniProt P49615). The description is as above. Here is the method:
as §3, §4, §2

The target of another assay is human CDC2 (CDK1) (human, UniProt P06493). The description is as above. The method, then: as §3, §4, §2
Assay [1] deals with cyclin D1 (endogenous, murine BAC1.2F5 macrophages) (mouse, UniProt P25322). Kind of assay: co-immunoprecipitation from lysates of proliferating mouse cells with antiserum to the p19 C-terminus.

B1: GST-p19 fusion protein (glutathione S-transferase fused to mouse InK4d-p19) (other)
chain: MLLEEVCVGDRLSGARARGDVQEVRRLLHRELVHPDALNRFGKTALQVMMFGSPAVALELLKQGASPNVQDASGTSPVHDAARTGFLDTLKVLVEHGADVNALDSTGSLPIHLAIREGHSSVVSFLAPESDLHHRDASGLTPLELARQRGAQNLMDILQGHMMIPM
B1: the binding result in the assay with cyclin D2 is “no binding”; with cyclin D3, “no binding”; with mouse CDK2 it was “no binding (tested: 1 ug on beads)”; with mouse CDK5, “no binding (tested: 1 ug on beads)”; in the assay with human CDC2 (CDK1), “no binding (tested: 1 ug on beads)”.

B2: mouse InK4d-p19 (other)
chain: MLLEEVCVGDRLSGARARGDVQEVRRLLHRELVHPDALNRFGKTALQVMMFGSPAVALELLKQGASPNVQDASGTSPVHDAARTGFLDTLKVLVEHGADVNALDSTGSLPIHLAIREGHSSVVSFLAPESDLHHRDASGLTPLELARQRGAQNLMDILQGHMMIPM
Consider B2, for which the binding result in assay [1] is on record as “no binding”.

B3: GST-p18 fusion protein (glutathione S-transferase fused to mouse InK4c-p18) (other)
chain: MAEPWGNELASAAARGDLEQLTSLLQNNVNVNAQNGFGRTALQVMKLGNPEIARRLLLRGANPNLKDGTGFAVIHDAARAGFLDTVQALLEFQADVNIEDNEGNLPLHLAAKEGHLPVVEFLMKHTACNVGHRNHKGDTAFDLARFYGRNEVISLMEANGVGGATSLQ
Turning to B3, the binding result in the assay with cyclin D2, in the assay with cyclin D3, in the assay with mouse CDK2, with mouse CDK5 and in the assay with human CDC2 (CDK1) was “no binding” in each case.
